{"source": "patent US10087260B2", "about": "“Anti-HER2 antibody and conjugate thereof” (REMEGEN, LTD., priority 2013, dated 2018)", "molecules": {"B1": {"name": "RC48: humanized anti-HER2 antibody RC48, derived from mRC48 antibody by humanized engineering; human IgG1κ (antibody, chains of the INN, looked up, V domains shown)", "VH": "EVQLVQSGAEVKKPGATVKISCKVSGYTFTDYYIHWVQQAPGKGLEWMGRVNPDHGDSYYNQKFKDKATITADKSTDTAYMELSSLRSEDTAVYFCARNYLFDHWGQGTLVTVSS", "VL": "DIQMTQSPSSVSASVGDRVTITCKASQDVGTAVAWYQQKPGKAPKLLIYWASIRHTGVPSRFSGSGSGTDFTLTISSLQPEDFATYYCHQFATYTFGGGTKVEIK"}}, "key": {"[1]": {"test_system": "chronic non-Hodgkin's lymphocytoma (NHL)", "conditions": "cited from earlier work"}, "[2]": {"test_system": "NCI-N87 human gastric cancer", "assay": "NCI-N87 human gastric cancer nude mouse subcutaneous transplantation tumor model", "format": "in vivo", "conditions": "200 mg/kg, dosing once per week, for 21 days", "procedure": "[Worded in the source for another cell line; this cell line is reported under the same test.] (§1) SPF-level BALB/c nude mice were inoculated subcutaneously with a certain amount of BT-474/L1.9 tumor cells, and after the tumor growing to 100-200 mm3, the animals were randomly grouped. […] The tumor volume was measured 2 times a week. […] The data were recorded. The tumor volume and the tumor-inhibition rate of each tumor-bearing mouse were calculated at different observation time points."}, "[3]": {"test_system": "BT-474/L1.9 human breast cancer", "assay": "Herceptin- and Lapatinib-resistant BT-474/L1.9 nude mouse subcutaneous transplantation tumor model", "format": "in vivo", "procedure": "as §1"}, "[4]": {"assay": "Toxicity in SD rat, single intravenous infusion", "format": "in vivo", "procedure": "SPF-level SD rats (the certificate No. is SCXK (jing)2012-0001) purchased from Beijing Vital River Laboratories Animal Technology Co, Ltd. were randomly divided into 7 groups according to gender, in which there were 10 rats in a group with half male and half female. These 7 groups included physiological saline negative control group, 0.48 mg/kg MMAE control group, 40 mg/kg RC48 naked antibody control group and series of RC48-vc-MMAE dose groups, in which the rats were dosed via tail vein infusion, and the experimental observation period was 21 days. The body weights were weighted at D1 (pre-dosing), D8, D15 and D22. After the observation period, the animals were euthanized and performed a general pathological anatomical observation, and the abnormal tissues or organs observed by the general anatomical observation were subjected to a histological examination."}, "[5]": {"test_system": "recurrent or refractory Hodgkin's lymphoma", "conditions": "cited from earlier work"}, "[6]": {"test_system": "HER2+ cells SK-BR-3, BT474", "assay": "Flow cytometry binding with HER2 positive breast cancer cells", "format": "cell-based, human", "conditions": "6 μg antibody, SK-BR-3 and BT474", "procedure": "(§2) After 2 times of thoroughly washing with 4 ml cold PBS, the antibodies binding with the cell surface were detected by R-PE-coupled goat anti-human IgG Fc specific second antibody (15 μl, 25 μg/mL), and then analyzed by flow cytometer (BD FACSCalibur)."}, "[7]": {"target": "T1, HER2-ECD (Homo sapiens, UniProt P04626)", "T1 construct": "made in house; host or cells: HEK293", "assay": "ELISA HER2-ECD binding affinity constant of antibodies", "conditions": "ELISA on coated HER2-ECD; average of 3 independent assays", "procedure": "HER2-ECD as described above was used as the antigen for immunizing the mouse and monoclonal antibody generation. Immunization, hybridoma cells fusion and primary screen were conducted according to standard procedures (reference: WHO Technical Report Series, No. 822, 1992 Annex 3). Four Balb/c mice (commercially obtained from Shanghai Slac Laboratory Animal Co. Ltd.) were immunized with equal volume of well-blended 0.25 ml HER2-ECD protein (50-100 μg) and 0.25 ml Freund's complete adjuvant (Difco Lab). Two weeks later, the second injection was carried out with Freund's incomplete adjuvant (Difco Lab) in which the amount of antigen was 25-50 μg/0.5 ml/mouse. Three weeks later, the third injection was carried out in which the amount was the same with that in the second injection. Ten days after the third injection the blood was drawn. The mice serum were detected by enzyme-linked immunosorbent assay (ELISA), and the spleens of the two mice with highest anti-HER2 antibody titer in serum were taken, which were then fused with the myeloma cell P3X63Ag8 (ATCC CRL-1580). […] Murine-derived anti-HER2 antibody was detected by the goat F(ab′)2 anti-murine IgG Fc specific second antibody coupled with horse radish peroxidase (Invitrogen Inc.)."}, "[8]": {"test_system": "MDA-MBA468", "assay": "Flow cytometry binding with HER2 negative cells", "format": "cell-based, human", "conditions": "6 μg antibody", "procedure": "as §2"}, "[9]": {"test_system": "BT474 human breast cancer tumor", "format": "in vivo", "conditions": "10 mg/kg, three administrations, 37 days after dosing", "procedure": "Five millions of BT474 cells were suspended in PBS, and inoculated to the armpit of BALB/c nude mouse (provided by Shanghai Slac Laboratory Animal Co. Ltd., with the certificate No. 2007000540582 and license No. SCXK(hu)2012-0002). After the tumor was formed, the tumor tissue which grew vigorously was taken and cut into about 1.5 mm^3, and inoculated subcutaneously to the right-side armpit of nude mouse under sterile conditions. The diameter of the nude mouse transplantation tumor was measured by vernier caliper. The animals were grouped randomly until the tumor grew up to 100˜300 mm^3."}, "[10]": {"target": "HER4 (Homo sapiens, UniProt Q15303)", "sequence (Q15303 26-1308, species assumed)": "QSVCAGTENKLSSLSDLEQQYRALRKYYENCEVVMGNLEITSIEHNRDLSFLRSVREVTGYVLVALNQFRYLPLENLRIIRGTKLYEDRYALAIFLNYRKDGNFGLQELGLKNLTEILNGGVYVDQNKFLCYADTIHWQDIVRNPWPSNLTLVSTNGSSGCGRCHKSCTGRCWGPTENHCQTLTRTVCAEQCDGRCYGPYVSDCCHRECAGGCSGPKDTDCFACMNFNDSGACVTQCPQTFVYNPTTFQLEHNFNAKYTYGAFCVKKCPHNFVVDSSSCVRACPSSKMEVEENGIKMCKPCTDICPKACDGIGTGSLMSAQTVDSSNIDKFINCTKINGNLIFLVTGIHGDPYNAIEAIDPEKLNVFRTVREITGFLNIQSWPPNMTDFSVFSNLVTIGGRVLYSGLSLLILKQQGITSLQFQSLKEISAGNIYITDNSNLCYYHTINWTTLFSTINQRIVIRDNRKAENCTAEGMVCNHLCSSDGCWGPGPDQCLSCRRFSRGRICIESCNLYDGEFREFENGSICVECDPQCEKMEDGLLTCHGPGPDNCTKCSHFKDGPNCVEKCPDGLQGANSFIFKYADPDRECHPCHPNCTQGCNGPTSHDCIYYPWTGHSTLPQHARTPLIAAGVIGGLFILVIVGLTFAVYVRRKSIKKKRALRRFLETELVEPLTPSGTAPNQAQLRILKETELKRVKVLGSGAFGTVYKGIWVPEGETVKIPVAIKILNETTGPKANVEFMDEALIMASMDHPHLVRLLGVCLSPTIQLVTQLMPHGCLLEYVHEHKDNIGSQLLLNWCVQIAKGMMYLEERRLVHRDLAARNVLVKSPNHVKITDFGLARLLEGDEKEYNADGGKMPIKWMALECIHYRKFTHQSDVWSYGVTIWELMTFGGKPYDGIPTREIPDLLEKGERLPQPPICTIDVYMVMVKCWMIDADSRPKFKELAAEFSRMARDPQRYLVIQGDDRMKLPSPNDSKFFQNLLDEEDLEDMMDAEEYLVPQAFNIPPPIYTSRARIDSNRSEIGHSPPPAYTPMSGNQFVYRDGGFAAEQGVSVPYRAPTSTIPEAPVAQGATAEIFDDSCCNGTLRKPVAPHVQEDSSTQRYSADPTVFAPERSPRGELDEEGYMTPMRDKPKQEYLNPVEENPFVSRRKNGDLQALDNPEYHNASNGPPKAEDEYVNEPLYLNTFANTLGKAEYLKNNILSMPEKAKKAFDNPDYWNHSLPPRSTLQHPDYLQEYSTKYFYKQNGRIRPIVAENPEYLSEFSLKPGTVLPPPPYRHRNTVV", "assay": "Antigen binding specificity ELISA", "conditions": "20 ng antigen per well", "procedure": "[Worded in the source for another target; used here, by the source, with some conditions changed.] (§3) HER2-ECD as described above was used as the antigen for immunizing the mouse and monoclonal antibody generation. Immunization, hybridoma cells fusion and primary screen were conducted according to standard procedures (reference: WHO Technical Report Series, No. 822, 1992 Annex 3). Four Balb/c mice (commercially obtained from Shanghai Slac Laboratory Animal Co. Ltd.) were immunized with equal volume of well-blended 0.25 ml HER2-ECD protein (50-100 μg) and 0.25 ml Freund's complete adjuvant (Difco Lab). Two weeks later, the second injection was carried out with Freund's incomplete adjuvant (Difco Lab) in which the amount of antigen was 25-50 μg/0.5 ml/mouse. Three weeks later, the third injection was carried out in which the amount was the same with that in the second injection. Ten days after the third injection the blood was drawn. The mice serum were detected by enzyme-linked immunosorbent assay (ELISA), and the spleens of the two mice with highest anti-HER2 antibody titer in serum were taken, which were then fused with the myeloma cell P3X63Ag8 (ATCC CRL-1580). The fused cells were diluted onto ten 96-well plates, and the preliminary screen was carried out through ELISA method depending on the binding capacity with HER2-ECD. In a classical ELISA assay, the Nunc Maxisord 96-well plate was coated with HER2-ECD (0.2-1 μg/ml), and then incubated with gradient diluted mouse serum or hybridoma supernatant (100 μL). Murine-derived anti-HER2 antibody was detected by the goat F(ab′)2 anti-murine IgG Fc specific second antibody coupled with horse radish peroxidase (Invitrogen Inc.)."}, "[11]": {"target": "HER2 (Homo sapiens, UniProt P04626)", "assay": "Antigen binding specificity ELISA", "conditions": "20 ng antigen per well", "procedure": "as §3"}, "[12]": {"target": "HER3 (Homo sapiens, UniProt P21860)", "assay": "Antigen binding specificity ELISA", "conditions": "20 ng antigen per well", "procedure": "[Worded in the source for another target; used here, by the source, with some conditions changed.] as §3"}, "[13]": {"target": "EGFR (Homo sapiens, UniProt P00533)", "assay": "Antigen binding specificity ELISA", "conditions": "20 ng antigen per well", "procedure": "[Worded in the source for another target; used here, by the source, with some conditions changed.] as §3"}, "[14]": {"target": "T2, HER2 on BT474 cell surface (Homo sapiens, UniProt P04626)", "T2 construct": "HER2 which was endogenously expressed in human breast cancer cells; endogenous in cells; host or cells: BT474 human breast cancer cells", "assay": "Flow cytometry binding curve with HER2 on BT474 cell surface", "conditions": "BT474 cells, antibody titration, read-out: Binding affinity Kd", "procedure": "as §2"}, "[15]": {"test_system": "BT474 human breast cancer transplantation tumor", "assay": "Tumor inhibition of RC48, BT474 human breast cancer transplantation tumor model", "format": "in vivo, nude mouse", "conditions": "10 mg/kg, administered three times", "text": "Human breast cancer BT474 nude mouse transplantation tumor model was established by inoculating BT474 cells into nude mouse subcutaneously. After growing continuously in vivo for 3 generations, the tumor tissue which grew vigorously was taken and cut into about 1.5 mm3, and inoculated subcutaneously to right-side armpit of nude mouse (provided by Shanghai Slac Laboratory Animal Co. Ltd., with the certificate No. 2007000540582 and license No. SCXK(hu)2012-0002) under sterile conditions. The diameter of the nude mouse transplantation tumor was measured by vernier caliper. The animals were grouped randomly until the tumor grew up to 100˜300 mm3."}}, "note": "Entries after “also recorded” stand apart in the source; their conditions may differ. Square brackets hold non-standard residues; d marks the D form. Peptide text beside a SMILES is read from it. * marks the point of attachment. Dolaproine = CO[C@@H]([C@@H]1CCCN1)[C@@H](C)C(=O)O; Dil = CC[C@H](C)[C@H](NC)[C@@H](CC(=O)O)OC; X1 = C[C@@H](N*)[C@@H](O)c1ccccc1; NMeV = CN[C@H](C(=O)O)C(C)C"}
{"molecule": "Rituxan: monoclonal antibody drug against lymphocytoma such as NHL", "values": [{"measurement": "total response rate", "setting": "[1]; Phase II clinical study, NHL, used alone", "value": 6, "unit": "%"}, {"measurement": "effective rate", "setting": "[1]; in combination with standard chemotherapy, chronic lymphocytoma", "value": "up to 90%"}]}
{"molecule": "CS(=O)(=O)CCNCc1ccc(-c2ccc3ncnc(Nc4ccc(OCc5cccc(F)c5)c(Cl)c4)c3c2)o1", "note": "[Lapatinib]", "values": [{"measurement": "tumor-inhibition rate", "setting": "[2]", "value": 78, "unit": "%"}, {"measurement": "tumor-inhibition rate", "setting": "[3]; 200 mg/kg, dosing everyday", "value": 45, "unit": "%"}]}
{"molecule": "CC[C@H](C)[C@@H]([C@@H](CC(=O)N1CCC[C@H]1[C@H](OC)[C@@H](C)C(=O)N[C@H](C)[C@@H](O)c1ccccc1)OC)N(C)C(=O)[C@@H](NC(=O)[C@@H](NC)C(C)C)C(C)C", "note": "[MMAE, Monomethyl auristatin E, reference compound] (H-[NMeV]V[Dil][Dolaproine]-X1)", "values": [{"measurement": "animals found dead during the experiment", "setting": "[4]; 0.48 mg/kg MMAE control group, single tail vein infusion, 21 days", "value": "9/10"}]}
{"molecule": "brentuximab vedotin", "values": [{"measurement": "patients achieving partial response", "setting": "[5]; Phase II, 102 patients", "value": 40, "unit": "%"}, {"measurement": "overall response rate", "setting": "[5]; median treatment course 6.7 months", "value": 73, "unit": "%"}, {"measurement": "complete response rate", "setting": "[5]; median treatment course 20.5 months", "value": 34, "unit": "%"}]}
{"molecule": "T-DM1", "values": [{"measurement": "tumor-inhibition rate", "setting": "[3]; 5 mg/kg, once per week, totally 2 times", "value": 58, "unit": "%"}]}
{"molecule": "B1", "values": [{"measurement": "binding with HER2 positive cells", "setting": "[6]", "value": "strong binding; also recorded: higher binding affinity"}, {"measurement": "Kd", "setting": "[7]", "value": 0.044, "unit": "nM"}, {"measurement": "binding with HER2 negative cells", "setting": "[8]", "value": "no binding"}, {"measurement": "tumor volume as % of the control group", "setting": "[9]", "value": 83, "unit": "%"}, {"measurement": "binding capacity with HER4", "setting": "[10]", "value": "nearly had no binding capacity; also recorded: not with EGFR, HER3 and HER4"}, {"measurement": "binding capacity with HER2", "setting": "[11]", "value": "strong binding capacity; also recorded: only shows specific binding affinity with HER2"}, {"measurement": "binding capacity with HER3", "setting": "[12]", "value": "nearly had no binding capacity; also recorded: not with EGFR, HER3 and HER4"}, {"measurement": "binding capacity with EGFR", "setting": "[13]", "value": "nearly had no binding capacity; also recorded: not with EGFR, HER3 and HER4"}, {"measurement": "Kd", "setting": "[14]", "value": 4, "unit": "nM"}, {"measurement": "tumor-inhibitory effect on BT474 tumors", "setting": "[15]", "value": "inhibited; also recorded: significantly better tumor-inhibitory effect"}, {"measurement": "toxicity response symptom", "setting": "[4]; 40 mg/kg, single intravenous infusion", "value": "no evident toxicity response symptom"}, {"measurement": "maximal tolerant dose of rat", "setting": "[4]; single intravenous infusion", "value": "≥ 40", "unit": "mg/kg"}]}
